Test results published in patent US20220073643A1 (NANJING GENSCRIPT BIOTECH, published 2022).

biological target: T1, human Claudin18.2 (human); experiment: cell ELISA, Claudin18.2-expressing HEK293T cells
T1 construct: also called CLDN18.2
Procedure, shortened: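 Claudin18.2-expressing HEK293T stable cells (1.5×10⁶ cells/ml in 5% skim milk/PBS blocking buffer) were incubated 1 h at room temperature in plates pre-blocked overnight at 4° C. EC₅₀ was derived by four-parameter curve fit.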

| EC50 | Binder |
| --- | --- |
| 3.17 nM | 418B8B10 (antibody, V domains shown, mouse hybridoma mAb) VH: DVQLVESGGGLVQPGGSRKLSCAASGFTFSSFGMHWVRQAPEKGLEWVAYISSGSSPIYYTDTVKGRFTISRDNPKNTLFLQMTSLRSEDTAMYFCARFYYGNSFDHWGQGTLVTVSA VL: DIVMTQSPSSLTVTAGEKVSMSCKSSQSLFNRGNQKSYLTWYQQRPGQPPKLLIYWASTRESGVPDRFTGSGSGTDFTLTISSVQAEDLAVYYCQNNYIYPLTFGAGTKLELK |
| 14.7 nM | 416F12F3 (antibody, V domains shown, mouse hybridoma mAb) VH: DVQLVESGGGLVQPGGSRKLSCAASGFTFSSFGMHWVRQAPEKGLEWVAYISSGSSTIYYAHSVKGRFTISRDNPKNTLFLQMTSLGSEDTAMYYCARFYYGNSFAYWGQGTLVTVSA VL: DIVMTQSPSSLTVTAGEKVTLSCKSSQSLLNSGNQKNYLTWYQQKPGQPPKMLIYWASTRESGVPDRFTGSGSGTDFTLTISSVQAEDLAVYYCQNAYTYPLTFGAGTRLELK |
| 0.522 nM | 370E2B12C3 (antibody, V domains shown, mouse hybridoma mAb) VH: QVQLKESGPGLVAPSQSLSITCTVSGFSLTTYGVHWVRQPPGKGLEWLGVIWAGGSTNYNSALMSRVSINKDNSKSQVFIKMNSLQADDTALYYCARAAYYGNGLDYWGQGTTLTVSS VL: DIVMTQSPSSLTVTAGEKVTMSCKSSQTLLNSGNQKNYLTWYQQKPGQPPKLLIYWASTGESGVPDRFTGSGSGTDFTLTISSVQAEDLAVYFCQNAYFYPFTFGGGTKLEIK |
| 2.53 nM | 422F4B6 (antibody, V domains shown, mouse hybridoma mAb) VH: DVQLVESGGGLVQPGGSRKLSCAASGFSFSSFGMHWVRQAPEKGLEWVAYISSGSSPIYYADTVKGRFIISRDNPKNTLFLQMTSLRSEDTAMYFCARIYYGNSFAYWGQGTLVTVSA VL: DIVMTQSPSSLTVTAGEKVTMSCKSSQTLLNSGNQKNYLTWYQQKPGQPPKLLIYWASTRESGVPDRFTGSGSGTDFTLTISSVQAEDLAVYYCQNAYSYPLTFGSGTKLELK |
| 2.94 nM | 420H7E6 (antibody, V domains shown, mouse hybridoma mAb) VH: DVQLVESGGGLVQPGGSRKLSCVTSGFTFSSFGMHWIRQAPEKGLEWVAFISGGGSPIFYADSVKGRFTVSRDNPKNTLFLQMTGLRSEDTAMYFCARFYFGNSFAYWGQGTLVTVSA VL: DIVMAQSPSSLTVTAGEKVTMNCRSSQSLFNSGNQKNYLTWYQQKPGQPPKLLIYWASTRESGVPVRFTGSGSGTDFTLTISSVQAEDLAVYYCQTGFSYPLTFGPGTKLELK |

The next lines start with the binder.

| Binder | EC50 |
| --- | --- |
| 430A11H9 (antibody, V domains shown, mouse hybridoma mAb) VH: DVKLVESGGGLVKPGGSLKLSCAASGFTFSSYTMSWVRQTPEKRLEWVATISSGGSYTYYPDSVKGRFTISRDNAKNTLYLQMSSLKSEDTAMYYCTRDPGYFAYWGQGTLVTVSA VL: DIQMTQSPASLSASVGETVTITCRASENIYSYLAWYQQKQGKSPQLLVYNAKTLAEGVPSRFSGSGSGTQFSLKINSLQPEDFGSYYCQHHYGTPYTFGGGTKLEIK | ~1.7 nM |
| 414A5F7 (antibody, V domains shown, mouse hybridoma mAb) VH: DVQLVESGGGLVQPGGSRKLSCAASGFTFSSFGMHWVRQAPEKGLEWVAYISSGSSPIYYADTVKGRFTISRDNPKNTLFLQMTSLRSEDTAMYFCARIYYGNSFAYWGQGTLVTVSA VL: DIVMTQSPSSLTVTAGEKVAMSCKSSQTLLNSGNQKNYLTWYQQKPGQPPKLLLYWASTRESGVPDRFTGSGSGTDFTLTISSVQAEDLAVYYCQNAYYYPLTFGSGTKLELK | 15.5 nM |
| 419B5G9 (antibody, V domains shown, mouse hybridoma mAb) VH: DVQLVESGGGLVQPGGSRKLSCAASGFTFSTFGMHWVRQAPEKGLEWVAYISGGSTTIFYADTVKGRFTISRDNPKNTLFLQMTSVRSEDTAMYYCARFYYGNSFAYWGPGTLVTVST VL: DIVMTQSPSSLTVTAGEKVTMSCKSSQSLLNSGNQKNYLTWYQQKPGQPPKMLIYWASTRESGVPDRFTGSGSGTDFTLTISSVQAEDLAVYYCQNAYSYPLTFGAGTKLELK | 22.5 nM |
| 429H6C5 (antibody, V domains shown, mouse hybridoma mAb) VH: DVQLVESGGGLVQPGGSRKLSCAASGFTFSSFGMHWVRQAPEKELEWVAYISSGSSTIYYAHTVKGRFTISRDNPKNTLFLRMTSLGSEDTAMYYCVRFYYGNSFVNWGQGTLVTVSA VL: DIVMTQSPSSLTATAGEKVTMSCKSSQSLLNSGNQKNYLTWYQQKPGQPPKMLIYWASTRESGVPDRFAGSGSGTDFTLTISSVQAEDLAVYYCQNAYIYPLTFGAGTRLELK | 13.2 nM |
| 420H3H9 (antibody, V domains shown, mouse hybridoma mAb) VH: DVQLVESGGGLVQPGGSRKLSCAASGFTFSSFGMHWVRQAPEKGLEWVAYISSGSSTIYYAHSVKGRFTISRDNPKNTLFLQMTSLGSEDTAMYYCARFYYGNSFAYWGQGTLVTVSA VL: DIVMTQSPSSLTVTAGEKVTLSCKSSQSLLNSGNQKNYLTWYQQKPGQPPKMLIYWASTRESGVPDRFTGSGSGTDFTLTISSVQAEDLADYYCQNAYTYPLTFGAGTRLELK | 20.7 nM |
| 423B2B5 (antibody, V domains shown, mouse hybridoma mAb) VH: DVQLVESGGGLVQPGGSRKLSCAASGFTFSSFGMHWVRQAPEKGLEWVAYISSGSSPIYYSDTVKGRFTISRDNPKNTLFLQMSSLRSEDTAMYFCARIYYGNSFDHWGQGTLVTVSA VL: DIVMTQSPSSLTVTAGEKVTMNCKSSQSLLNSGNQKNYLTWYQQKPGQPPKLLIYWASTRESGVPDRFTGSGSGTDFTLTISSVQAEDLAVYYCQNDYSYPLTFGAGTKLELK | 12.7 nM |
| 423C10E1 (antibody, V domains shown, mouse hybridoma mAb) VH: DVQLVESGGGLVQPGGSRKLSCVTSGFTFSSFGMHWVRQAPEKGLEWVAFISGGGSPIFYADSVKGRFTVSRDNPKNTLFLQMTGLRSEDTAMYFCARFYFGNSFAYWGQGTLVTVSA VL: DIVMTQSPSSLTVTAGEKVTMNCRSSQSLFNSGNQKNYLTWYQQKPGQSPKLLIYWASTRESGVPVRFTGSGSGTDFTLTISSVQAEDLAVYYCQTSFNYPLTFGPGTKLELK | 2.46 nM |

biological target: T1, human Claudin18.2; experiment: FACS, Claudin18.2-HEK293 cells
Experimental: The binding of chimeric antibodies to Claudin18.2 expressed on HEK293 cells was determine by FACS analysis. Briefly, HEK293 cells expressing human Claudin18.2 as prepared in the foregoing Example were harvested and incubated with anti-Claudin18.2 mAbs at 4° C. for 40 min, followed by fluorophore (iFluor 647)-labeled goat […] IgG (H+L) secondary antibodies at 4° C. for 0.5 hour. The samples were then analyzed by flow cytometry.
After initial screening of cell binding with transfected supernatants, the binding pattern of chimeric and up to 3 humanized antibodies on Claudin18.2 expressed on HEK293 cells were plotted with antibody in 3× serial dilutions, starting concentration of 45 μg/ml, following the protocol described in Example 3.

| EC50 | Span | Binder |
| --- | --- | --- |
| 0.168 µg/mL | 14000 | humanized 207F8G5-VH1.1 + VL1.1 (antibody, human IgG1, kappa, V domains shown, humanized, human IgG1/kappa constant regions) VH: QVQLVQSGAEVKKPGASVKVSCKASGFTFTSYNIHWVKQAPGQGLEWMGYISPGNGGSNYNLKFKDRVTMTSDTSISTAYMELSRLRSDDTAVYFCATGRGFAYWGQGTLVTVSS VL: DIVMTQSPDSLAVSPGERATMSCKSSQSLFNSGNQKNYLIWYQQKPGQPPKLLIYRASTRDSGVPDRFSGSGSGTDFTLTISSLQAEDVAVYYCQNDYSYPLTFGGGTKLEIKR |
| 0.304 µg/mL | 58000 | humanized 232C5E3-VL1.1 + VH1 (antibody, human IgG1, kappa, V domains shown, humanized, human IgG1/kappa constant regions) VH: QVQLVQSGAEVKKPGASVKVSCKASGYTFTSHNIHWVRQAPGQRLEWMGYIYPGNGGTNYNQKFKARVTITRDTSASTAYMELSSLRSEDTAVYYCARDYYGNSFAYWGQGTLVTVSS VL: DIVMTQSPDSLAVSLGERATMSCKSSQSLLNSGNQKNYLTWYQQKPGQPPKLLIYWASTRESGVPDRFSGSGSGTDFTLTISSLQAEDVAVYYCQNGYRFPFTFGQGTKLEIKR |
| 0.104 µg/mL | 10900 | humanized 246B5F2-VH1.1 + VL1 (antibody, human IgG1, kappa, V domains shown, humanized, human IgG1/kappa constant regions) VH: EVQLLESGGGLVQPGGSLRLSCAASEFTFSNYAMSWVRQAPGKRLEWVATISSGRSSTYYPDSVKGRFTISRDNSKNTLYLQMNSLRAEDTAVYYCAGLGRGNAMEYWGQGTLVTVSS VL: DIVMTQSPDSLAVSLGERATINCKSSQSLLNSGNQKNYLTWYQQKPGQPPKLLIYWASTRESGVPDRFSGSGSGTDFTLTISSLQAEDVAVYYCQNAYSYPFTFGGGTKLEIKR |
| 0.224 µg/mL | 54900 | humanized 232C5E3-VL1.1 + VH1.1 (antibody, human IgG1, kappa, V domains shown, humanized, human IgG1/kappa constant regions) VH: QVQLVQSGAEVKKPGASVKVSCKASGYTFTSHNIHWVRQAPGQRLEWIGYIYPGNGGTNYNQKFKARATITADTSASTAYMELSSLRSEDTAVYFCARDYYGNSFAYWGQGTLVTVSS VL: DIVMTQSPDSLAVSLGERATMSCKSSQSLLNSGNQKNYLTWYQQKPGQPPKLLIYWASTRESGVPDRFSGSGSGTDFTLTISSLQAEDVAVYYCQNGYRFPFTFGQGTKLEIKR |
| 0.261 µg/mL | 15700 | humanized 237D2A4-VH1.2 + VL1 (antibody, human IgG1, kappa, V domains shown, humanized, human IgG1/kappa constant regions) VH: QVQLQESGPGLVKPSETLSLTCTVSGFSLTSYGVSWIRQPPGKGLEWIGVIWGDGSTNYHSTLISRVTISKDTSKNQVFLKLSSVTAADTAVYYCAKAGRGNALDYWGQGTLVTVSS VL: DIVMTQSPDSLAVSLGERATINCKSSQSLLNSGNQKNYLTWYQQKPGQPPKLLIYWASTRESGVPDRFSGSGSGTDFTLTISSLQAEDVAVYYCQNDYSFPLTFGGGTKLEIKR |
| 0.212 µg/mL | 57900 | humanized 232C5E3-VL1.1 + VH1.2 (antibody, human IgG1, kappa, V domains shown, humanized, human IgG1/kappa constant regions) VH: QVQLVQSGAEVKKPGASVKVSCKASGYTFTSHNIHWIKQAPGQRLEWMGYIYPGNGGTNYNQKFKARVTITADTSASTAYMELSSLRSEDTAVYFCARDYYGNSFAYWGQGTLVTVSS VL: DIVMTQSPDSLAVSLGERATMSCKSSQSLLNSGNQKNYLTWYQQKPGQPPKLLIYWASTRESGVPDRFSGSGSGTDFTLTISSLQAEDVAVYYCQNGYRFPFTFGQGTKLEIKR |
| 0.143 µg/mL | 13800 | humanized 207F8G5-VH1.3 + VL1.1 (antibody, human IgG1, kappa, V domains shown, humanized, human IgG1/kappa constant regions) VH: QVQLVQSGAEVKKPGASVKVSCKASGFTFTSYNIHWVRQAPGQGLEWIGYISPGNGGSNYNLKFKDRATMTSDTSISTAYMELSRLRSDDTAVYFCATGRGFAYWGQGTLVTVSS VL: DIVMTQSPDSLAVSPGERATMSCKSSQSLFNSGNQKNYLIWYQQKPGQPPKLLIYRASTRDSGVPDRFSGSGSGTDFTLTISSLQAEDVAVYYCQNDYSYPLTFGGGTKLEIKR |
| 0.145 µg/mL | 13800 | humanized 207F8G5-VH1.7 + VL1 (antibody, human IgG1, kappa, V domains shown, humanized, human IgG1/kappa constant regions) VH: QVQLVQSGAEVKKPGASVKVSCKASGFTFTSYNIHWVKQAPGQGLEWMGYISPGNGGSNYNLKFKDRVTLTSDTSISTAYMELSRLRSDDTAVYYCATGRGFAYWGQGTLVTVSS VL: DIVMTQSPDSLAVSLGERATINCKSSQSLFNSGNQKNYLIWYQQKPGQPPKLLIYRASTRDSGVPDRFSGSGSGTDFTLTISSLQAEDVAVYYCQNDYSYPLTFGGGTKLEIKR |
